Laboratory results from the DeepSol protein solubility set.

Assay: soluble on expression in E. coli; label from the status in PepcDB or PDB records

| Sequence | soluble on expression in E. coli |
| --- | --- |
| MSLAIPTRNEVSDDLKWDLSRVFKDDQEWEQEYNRVAIEIKNLGRFKGNLAKSGQDLYEGITEILSVNRRLEKVYVYATMSSDVDTSNTHYLGLVAKAQSLANQMSAAISFVDPEILSIPEETLAKFMQDEPRLKEYQHRLEQITKKRPHTLPASEEKIIAAAGDAMGTSANTFNVLTNSDMEYGYVQDEDGEMVQLSDGLYSLLIQSQDRNVRKNAFDVMYASYGQFENSLASTLSGEVKAHNFNAQVHKYNSAREAALSENGVPTAVYDTLVKEVNSHLNLLHRYVSLRKKILGLSDLQMYDMYVPLTGEPSLSYNFEEAKNEARRALAPLGKDYLEHVDYIFNNRVIDVVESQNKVTGAYSGGSYDTDPYELLNWEDNLDSLYTLVHETGHSVHSWYTRNTQPYVYGDYPIFVAEIASTTNENILTEYFLDKITDPKTRAFVLNHYLDSFKGTLFRQTQFAEFEQFIHEADANGQPLTADVLDEFYGNLNQRYYGDSVEPGGEIAKEWARIPHFYYNFYVYQYATGFAAATALANNVVHGTDKERTAYINFLKAGSSDYPTEIMKRAGVDMTKADYLKDAFNTFEERLNEFEKIVDELKTEGHHHHHH | soluble |
| MGSDKIHHHHHHMWENFLFSVDRKETTMSMRLLARKMLFMRGASWQHPVIRLGLTALDPVDAIIRSATGLRSLPRYSTRVRSNGLSNQFGGGKFARQGRVILHMLQRHCALSPKSRVLEIGCGCGRTAVQLASFLEAEKYVGMDIEMVSLEACRDNPHLKRRGFKFDLIDIQNNEYNPKGRFRADEYRFSYLDGSMDCVFLISVFTHMLPEDVSNYVTEIGRMLDRGGMCLFSTFLIDHGRGGRGLNFAHDGNGFSYYDVRMPEIAVAYPQRFFEDSFGRAGLVLHEVKLGSWRDDGRGSYPEFGQDVLVFKKAA | not soluble |
| MTNPTRTKRCGGDVLCGIDNHFQLLLYISENHCQLETKTFFEYFLRIVNKTHDYAILENKKICISHLEHHHHHH | not soluble |
| GPGSMRDLNKRQQKFVCGCLGITSWDGKDIPFYVETMPKINDVVWVKITQVNDTSAVVQLLEYGKREGIIPYTEVTRRRVRSMGKLIKVGRTEPAQVIRIDKDKGYIDLSKKLVTPNEAKACEAHFRQGNEVRSIVCHVAELCDIPAMDAMEMIAYPLYQREPGKHAWTWLYELNQTEDVERILGPLKLEKAISDCLMLTLKNAMRLKVLTLFAEVEITCFACDGVEAIRDVLILGRSYGEGSDPQIHLSVNIIGPPKYGIRARTDMKEEGIQRMKEAIEAMTAEIKKRGGQLKVVSPPQPHGDADEGKKGFDGEDDDDEDAD | soluble |
| MKLMDVRVSGLNVWITDKHILKGISFKAQPGTVTAIMGPSGSGKSTLIRVINRLIDLIPGARVEGEVWINNMNVMKEDPYNIRRYTGMVFQEPNPFPHMTIYENVAIGPKLHGLAKNKKELDEIVEWALKMAHLWDEVKDRLSDYPHQLSGGQRQRLSLARALALKPRVLLLDEPTANIDPVSTVKIEQSIVEYAKEEMATVIIVTHTPQQAARISDQILFLYEGRVIEYGPTKELVLRPRHELTKKFLGGEV | soluble |
| MSYQSLLTHRCDIYHLQEKKENRKQKFGVPVEDVQPVFSYPDEPDIENQPCYFTEKSQSIIQQESNVSIYQSFLVHFPATADIRVNDRAVWDGTAYKLQKPRKIRNHHWEVTAVREVEYLLEHHHHHH | soluble |
| MSHGSGLVRTTCSSGGALGPAQPSEGLLDRVYPLTHGALFKVAQMGYRLLVAGFQNCRGIDIY | not soluble |
| MGSDKIHHHHHHMVSMIKTAQGYSSELTRDQSELTQFWSQVQQESLAIEPGITLAYGFIRHEDNRRAIVISNGRVESYLKYQELIYDCYQQGFSVYALDHRGQGLSSRLTTNPHQGHVEHFSDYVDDFKVFIERVVKPERHKELFLVGHSMGGAIATHYIHQDPTTFNAAVLSAPMYGIILPLPTVVIKQLATKMINTQPVIGSHLVATNYIIGGRDYQAISFKLNQLTHSQVRYQHYRDLYQQQPQCQLGSPTNQWLAEAIDAAKASIDMARGSPIPLLILQAGKDKIVCNQAQNKALAGLCQRIIIEGAFHEVFIETDKLRDKALKALFDFINQHSEII | not soluble |
| MAHHHHHHMGTLEAQTQGPGSMTGPLAAARSVAATKSMTAPTVDERPDIKKGLAGVVVDTTAISKVVPQTNSLTYRGYPVQDLAARCSFEQVAFLLWRGELPTDAELALFSQRERASRRVDRSMLSLLAKLPDNCHPMDVVRTAISYLGAEDPDEDDAAANRAKAMRMMAVLPTIVAIDMRRRRGLPPIAPHSGLGYAQNFLHMCFGEVPETAVVSAFEQSMILYAEHGFNASTFAARVVTSTQSDIYSAVTGAIGALKGRLHGGANEAVMHDMIEIGDPANAREWLRAKLARKEKIMGFGHRVYRHGDSRVPTMKRALERVGTVRDGQRWLDIYQVLAAEMASATGILPNLDFPTGPAYYLMGFDIASFTPIFVMSRITGWTAHIMEQATANALIRPLSAYCGHEQRVLPGTF | soluble |
| MVGAHQMKSEEQANMQLQQQAVLGLNWMQDSGEYKALAYQAYNAAKVAFDHAKVAKGKKKAVVADLDETMLDNSPYAGWQVQNNKPFDGKDWTRWVDARQSRAVPGAVEFNNYVNSHKGKVFYVTNRKDSSEKAGTIDDMKRLGFNGVEESAFYLKKDKSAKAARFAEIEKQGYEIVLYVGDNLDDFGNTVYGKLNADRRAFVDQNQGKFGKTFIMLPNANYGGWEGGLAEGYFKKDTQGQIKARLDAVQAWDGK | soluble |
| MGSDKIHHHHHHMRTLKELERELQPRQHLWYFEYYTGNNVGLFMKMNRVIYSGQSDIQRIDIFENPDLGVVFALDGITMTTEKDEFMYHEMLAHVPMFLHPNPKKVLIIGGGDGGTLREVLKHDSVEKAILCEVDGLVIEAARKYLKQTSCGFDDPRAEIVIANGAEYVRKFKNEFDVIIIDSTDPTAGQGGHLFTEEFYQACYDALKEDGVFSAETEDPFYDIGWFKLAYRRISKVFPITRVYLGFMTTYPSGMWSYTFASKGIDPIKDFDPEKVRKFNKELKYYNEEVHVASFALPNFVKKELGLM | not soluble |
| MEIFMNYKKSNGLNYILISDTALFQGCSPVETEKLLSGMQFFTKAYKKGVPVYHAGTPVSDIGIVLHGVVQIENNDLWGNKNIISLAQAGEVFAEAYACIPGEPMMVDVIALEDCEILFLNVPRLFQLASSGKGEYSVLIRNLTMISARKNLLLSRRILHTSSKKIRGRLLSYLSHQAELQGSRYIDIPLNRQQLADYLSLDRSALSKELAKMKQDGLLDYHKNSFVLKNV | not soluble |
| MGSDKIHHHHHHMIDLSTDYLGLKLKNPLVPSASPLSRNLDNALRLEDAGAAALVMYSLFEEELRAEDAMLDRFLTCPDFGHSEAANFLPSAPFEDGLERYVSQLQKLKARLGIPVIASLNGVSRSGWVELGRALEEAGADALELNVYHVAAEMWENGEAVEARYLSLLRDLRHAVKLPIVMKLSPFFSSLPNFVKRLEHAGAQGVVLFNRFYQPDIDLDTLCVVDRLHLSYPDEALLRIRWLSILHGRTGLTLAATGGVHSHDEALKMLLVGADVIHLASCLLQHGPARLTRILQDIERWMGERDYASVAQLKGSMSQKNLLDPAAMARLSYLRVLDSFSPQPGVWS | not soluble |
| MATAPYGVRLLVGAATVAVEETMKLPRTILMYPMTLASQAAHVVMRFQQGLAELVIKGDNTLETLFPPKDEKPEWATFDEDLPDALEGTSIPLLGLSDASEAKNDDRRSDGRFALYSVSDTPETTTASRSADRSTNPKTAKHPKSAAKPTVPTPAVAAELDYPALTLAQLRARLHTLDVPELEALLAYEQATKARAPFQTLLANRITRATAK | not soluble |
| MSLTMYADLVLHGGSIATLDDKLEQAQAVAIAAGRIIAVGSDAHCLALAGPGTRRIGLGGACVMPGINDSHCHPDGQAVKAGRWDDVSQVATQQALLARIADFHRRMPAGAWYLGFRFDDTHSGGYPARQALEQAAPGRPVFLLRRDAQVGLASAPALAALLASGLATQVPPHCLDAATGLARGRGVFAFTTHIAAADSLDDYLEGFPTLFAEMGRMGITSVHNALTSALAVQAYRALHGAGRLPVRVGMMLNGRDQRLVDETLAAGLRFGAGDDRLYLLGVEYGSDGSTSGRTAAYYQPYVGEEGGDGRPANRGDVNFSAEDLAAKVGRVMAAGLQAAATGNGDRGIDFALDAFEQGLRAHPGAVPPRIEHCCCAPPAIQQRMAALGVIDSSAAGFAYNLGDAYLRNRPSAEMAWMWPHRDMLDRGVLVCAHSDAPVCERNPFLGMWSMVTRKTASGASLGAGQAITPLEAMRCYTANPARAEGQAARKGTLSPGKLADLIVLDRDPCAVDPDEIRHTQVLATLVGGQATYRAAGAPSWADELPMREEGHHHHHH | soluble |
